Results as given in the nanobody polyreactivity screen of Harvey et al. (2022).

Assay: yeast display, Sf9 membrane polyspecificity reagent, FACS + sequencing; frameworks hold sequencing errors
In short: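 Synthetic nanobody libraries on Saccharomyces cerevisiae BJ5465 were galactose-induced for 36–48 hours, stained 1 hour at 4 °C with 10% biotinylated, detergent-solubilized Sf9 membrane reagent and enriched on streptavidin microbeads. FACS then separated cells into low and high (top ~1%) gates by anti-HA (expression) and streptavidin (reagent binding) fluorescence. Genes were colony-PCR amplified, MiSeq 2 × 250 sequenced and CDR-length filtered. A clone's polyreactivity label is that of its gate of origin.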

Sequence | polyreactivity (PSR sort gate)
QDQLVESGGCLVQAGLSLRLSCAASGSTFGPYAMGWYRQAPGKERELVADISGGSTNYADSVKGRFTISRDNAKNTVYLQLNSLKPEDTAFYYCATDDHVETVRRLYGDWGQGTQVTVSS | low polyreactivity
QVHLEESGGGLVQAGGSLRLSCAASGSIFGDNAKGWYRQAPGKERELVAAISSSGGSTYADSVKGRFTISRDNAKNTVYLQMNSLKPEDTAVYYCATQIAWCTYVINPQMDFWGQGTLVTVSS | low polyreactivity
QVQLVESGGGLVQAGGSLRLSCAASGLIFSPYAMGWYRQAPGKVREFVAAITSRGGTYYADSVKGRFTISRDNAKNTVYLQMNSLKPEDTAVYYCAARNNRYPLYNYWGQGTQVTVSS | low polyreactivity
QVQLVESGGGLVQAGGSLRLSCAASGITLFHYVMGWYRQAPGKERELVADITWRGGNTFYADSVKGRFTISRDNAKNTVYLQMNSLKPEDTAVYYCAVRQAYRTRDYDYWGQGTQVTVSS | high polyreactivity
QVQLVESGGGLVQAGGSLRLSCAASGSIFYYYAMGWYRQAPGKERELVAGITVSGGRTYYADSVKGRFTISRDNAKNTVYLQMNSLKPEDTAVYYCAADGRAKYDYWGQGTQVTVSS | low polyreactivity
QVQLVESGGGLVQAGGSLRLSCAASGRIFRYNAMGWYRQAPGKETELVAVFSGSGGSTYYADSVKGRFTISRDNAKHTVYVQMNSLKPEDTAVYYCAAQFHVSWYNYWGQGTQVTVSS | low polyreactivity
QVQLVESGGGLVQAGGSLRLSCAASGSIFRVYAMGWYRQAPGKERELVASISRRGGSTYYADSVKGRFTISRDNAKNTVYLQMNSLKPEDTAVYYCAAEFVIGGHGYDYWGQGTQVTVSS | high polyreactivity
QVQLVESGGGLVQAGGSLRLSCAASGFIFRRYTMGWYTQAPGKERELVATITRSVNTDYADSVKGRFTISRDNAKNTVYLQMNSLKPEDTAVYYCAARKYYYFPVAYDYWGQGTQVTVSS | high polyreactivity
QVQLVESGGGLVQAGGSLRLSCAASGSTIGSYAMGWYRQAPGKERELVAVITGGGDTNYADSVKGRFTISRDNAKNTVYLQMNSLKPEDTAVYYCAAEGSFYRYHVGSDYWGQGTQLTVSS | low polyreactivity
QVQLVESGGGLVQAGGSLRLSCAASGRSFYRYVMGWYRQAPGTERELVAAMTWSGGSTYYADSVKGRFTISRDNAKNTVYLQMNSLKPEDTAVYYCAADWSTWGVDYWGQGTQVTVSS | low polyreactivity
QVQLVESGGGLVQAGGSLRLSCAASGITFGYYAMGWYRQAPGKERELVAAISRTGSTTYYADSVKGRFTISRDNAKNTVYLQMNRLKPEDTAVYYCAARRWGTNGGGSPMYYWGQGTQVTVSS | high polyreactivity
QVQLVESGVGLVQAGGSLRLSCAASGSTFQPYSMGRYRQAPGKERELVAAIRSLAGSTYYADSVKGRFTISRDNAKNTVYLQMNSLKPEDTAVYYCAAGYNPYVGLGWYPIYDFWGQGTQVTVSS | low polyreactivity
QVQLVESGGGLVQAGGTLRLSCAASGYIFVIYAMGWYRQAPGKEREWVAAISWSGDTTYYADSVKGRFTISRDNAKNTVYLQMNSLKPEDTAVYYCNAETAYYQVDYWGQGTQVTVSS | low polyreactivity
QVQLVESGGGLVQAGGSLRLSCAASGSIFGFYAMGWYRQAPGKEREMVAAITRSGDSTYADSVKGRFTISRDNAKNTVYLQMNSLKPEDTAVYYCADDIDRSDVNSESYDYDYWGQGTQVTVSS | low polyreactivity
QVQLGESGGCLVQAGGSLRLSCAASGSPFYTYAMGWYRQAPGKERELVAASSFGGGSTYADSVKGRFTISRDNAKNTLYLQMNSLKPDDTAGYYCNTDLYLYGWYPREVQQYAGGDYWGQGTQVTVSS | low polyreactivity
QVQHVESGGGLVQAGGSLRLSCAASGLTFELYAMGWYRQAPGKERELVAAITWSGGRTYDADSVKGRFTISRDNAKNTVYLQMNSLKPEDTAVYYCAADVYPGYVGSQEYDYWGQGTQVTVSS | low polyreactivity

Sequence | polyreactivity (PSR sort gate)
QVQLVESGGGLVQAGGSLRLSCAASGGILHGYAMGWYIQEPGKERELVSGITYSGDDTNYADSVKGRFTISRDNAKNTVYLQMNSLKPEDTAVYYCAAGPVWHIFTIDYVSFDDWGQGTQVTVSS | low polyreactivity
QVQLVESGGGLVQAGGSLRLSCAASGRIFGVYAMGWYRQAPGKERELVAAIYSGSSTYYADSVKGRFTISRDNAKNTVYLHMNSLKPEDTAVYYCAAVSRDDNYQDYYYWGQGTQVTVSS | low polyreactivity
QVQLVESGGGLVQAGGSLRLSCAASGSIFRSYAMGWYRPAPGKERELVASITWRGGRTYYADSVKGRFTISRDNAKNTVYLQMNSLKPEDTAVYYCAVLWTPAGGYYFRYDYWGQGTQVTVSS | low polyreactivity
QVQLGESGGGLVQAGGSLRISCAASGSILIANAMGWYRQAPGKERELVAPISRSGSTTYYADSVKGRFTISRDNAKNTVYLQMNSLKPEDTAVYYCNARYSLHSYYWFIYDSWGQGTQVTGSS | low polyreactivity
QVQLVESGGGLVQAGGSLRLICAASGSIFDQNDMGWYRQAPGKERELVAAISSGSSTNYADSVKGRFTISRDNAKNTVYLQMNSLKAEDTAGYYCAVTSPYSQGYSFWGADSREYWGQGTQVTVSS | low polyreactivity
QVQLVESGGGLVQAGGSLRLSCAASGSIFYSNVMGWYRQAPGKERELVASITNGGGTYYADSVKGRFTISRDNAKTTVYLQMNSLKPEDTAVYYCARRVYYWGQGTQVTVSS | high polyreactivity
QVQLVESGGGLVQAGGSLRLSCAASGRIFGTYAMGWYRQAPGKERELVARITRIGTRTYYADSVKGRFTISRDNAKNTVYLQMNSLKPEDTAVDYCAAGHYSYWVNTVKRYNTGYDYWGQGTQVTVSS | high polyreactivity
QVQLVESGGGLVQAGGSLRLSCAASGLIFYENAMGWYRQAPGKERELVAAINYDGDSTYYADSVKGRFTISRDNAKNTVYLQMNSLKPEDTAVYYCAADGGWVLFWMDYWGQGTQVTVSS | low polyreactivity
QVQLVESGGGLVQAGGSLRLSCAASGRTFEHYVMGWYRQAPGKERELVAAISNSGDTTFYADSVKGRFTISRDNAKNTVYFQMNSLKPEDTAVYYCNADSYWHWGEWLYAPYDYWGQGTQVTVSS | low polyreactivity
QVQLQESGGCLVQAGGSLRLSCAASGPISRRSTMGWYSQAPGKERELVTAITRGTNTNYADSVKGRFTISRDNAKNTEYLQMNSLKTEDTAVYYCAAYGVLKPSRGDAVFHRYWGQGTQVTVSS | low polyreactivity
QVQLVETGGGLVQAGGSLRLSCAPSGITFYVYAMGWYTQAPGKERELVAAISSGSSTYYADSVKGSFTISRDNAKNTVYLQMNSLKPEDTAVYYCAARYRKYLSEYCGQGTQVTVSS | high polyreactivity
QVQLVESGGGLVQAGGSLRLSCAASGLILYYYAMGWYRQAPGKEREFVAAISGRGGSTYYADSVKGRFTISRDNAKNTVYLQMNSLKPEDTAVYYCAARVWYKYDHWGQGTQVTVSS | high polyreactivity
QVQLLESGGGLVQAGGSLRLSCAASGLTFVRYDMGWDRQAPGKERELVAAISSSGGSTNYADSVKGRFTISRDNAKNTVYLQMNSLKPEDTAVYYCAADYTWRFLRFGYWGQGTQVTVSS | high polyreactivity
QVQLVESGGGLVQAGGSLRLSCAASGFTFKYYAMGWYRQAPGKERELVAVISSSGGSTYYADSVKGRFTISRDNAKNTVYLQMNSLKPEDTAVYYCNTDAYWHRQQYDYWGQGTQVTVSS | low polyreactivity
QVQLVESGGGLVQAGGSLRLSCAASGSILWYYAMGWYRQAPGKERELVATITSGGSTYYADSVKGRFTMSRDNAKNTVYLQMNILKTEDTAVYYCNADLAVDEYVYWGQGTQVTVSS | low polyreactivity
QVQLVESGGGLVQAGGSLRLSCAASGSTFEYYVMGWYRQAPGKERELVAAISGSGGGTYYADSVKGRFTISRDNEKNTVYLQMNSLKPEDTAVYYCAAVATQEKYDYWGQGTQVTVSS | low polyreactivity
